From patent US20120172293A1 (Takeda / Millennium, published 2012)
Starred links: 1 amine or outer side, 2 acyl side, 3 side chain; linkers in the order of their positions; H or OH if unused. Non-standard residues stand in square brackets, D forms with d. No end group written: not given here. Azetidine3carboxylic = O=C(C1CN([*:1])C1)[*:2]; Dap(CONH2) = NC(=O)NC[C@H](N)C(=O)O; 3Pal = N[C@@H](Cc1cccnc1)C(=O)O; 4Pal = N[C@@H](Cc1ccncc1)C(=O)O; dHyp = O=C(O)[C@H]1C[C@H](O)CN1; Cha = N[C@@H](CC1CCCCC1)C(=O)O; Cit = NC(=O)NCCC[C@H](N)C(=O)O; NMeS = CN[C@@H](CO)C(=O)O; dPip = O=C(O)[C@H]1CCCCN1; hSer = N[C@@H](CCO)C(=O)O; NMeA = CN[C@@H](C)C(=O)O; Nle = CCCC[C@H](N)C(=O)O; Orn = NCCC[C@H](N)C(=O)O; dNMeA = CN[C@H](C)C(=O)O; Aib = CC(C)(N)C(=O)O

B1: Ac-[Glu23, D-Pro24, Pya(4)26, Cha27,28,36, Aib31]-PYY(23-36) (peptide)
peptide: Ac-E[dP]R[4Pal][Cha][Cha]NL[Aib]TRQR[Cha]-NH2
SMILES: CC(=O)N[C@@H](CCC(=O)O)C(=O)N1CCC[C@@H]1C(=O)N[C@@H](CCCNC(=N)N)C(=O)N[C@@H](Cc1ccncc1)C(=O)N[C@@H](CC1CCCCC1)C(=O)N[C@@H](CC1CCCCC1)C(=O)N[C@@H](CC(N)=O)C(=O)N[C@@H](CC(C)C)C(=O)NC(C)(C)C(=O)N[C@H](C(=O)N[C@@H](CCCNC(=N)N)C(=O)N[C@@H](CCC(N)=O)C(=O)N[C@@H](CCCNC(=N)N)C(=O)N[C@@H](CC1CCCCC1)C(N)=O)[C@@H](C)O
B2: Ac-[Aze(3)24, Cha27,28,36, Aib31]-PYY(23-36) (peptide)
peptide: Ac-S[Azetidine3carboxylic]RH[Cha][Cha]NL[Aib]TRQR[Cha]-NH2
SMILES: CC(=O)N[C@@H](CO)C(=O)N1CC(C(=O)N[C@@H](CCCNC(=N)N)C(=O)N[C@@H](Cc2c[nH]cn2)C(=O)N[C@@H](CC2CCCCC2)C(=O)N[C@@H](CC2CCCCC2)C(=O)N[C@@H](CC(N)=O)C(=O)N[C@@H](CC(C)C)C(=O)NC(C)(C)C(=O)N[C@H](C(=O)N[C@@H](CCCNC(=N)N)C(=O)N[C@@H](CCC(N)=O)C(=O)N[C@@H](CCCNC(=N)N)C(=O)N[C@@H](CC2CCCCC2)C(N)=O)[C@@H](C)O)C1
B3: Ac-[D-Pro24, Alb26, Cha27,28,36, Aib31]-PYY(23-36) (peptide)
peptide: Ac-S[dP]R[Dap(CONH2)][Cha][Cha]NL[Aib]TRQR[Cha]-NH2
SMILES: CC(=O)N[C@@H](CO)C(=O)N1CCC[C@@H]1C(=O)N[C@@H](CCCNC(=N)N)C(=O)N[C@@H](CNC(N)=O)C(=O)N[C@@H](CC1CCCCC1)C(=O)N[C@@H](CC1CCCCC1)C(=O)N[C@@H](CC(N)=O)C(=O)N[C@@H](CC(C)C)C(=O)NC(C)(C)C(=O)N[C@H](C(=O)N[C@@H](CCCNC(=N)N)C(=O)N[C@@H](CCC(N)=O)C(=O)N[C@@H](CCCNC(=N)N)C(=O)N[C@@H](CC1CCCCC1)C(N)=O)[C@@H](C)O
B4: Ac-[D-Pro24, Pya(3)26, Cha27,28,36, Aib31]-PYY(23-36) (peptide)
peptide: Ac-S[dP]R[3Pal][Cha][Cha]NL[Aib]TRQR[Cha]-NH2
SMILES: CC(=O)N[C@@H](CO)C(=O)N1CCC[C@@H]1C(=O)N[C@@H](CCCNC(=N)N)C(=O)N[C@@H](Cc1cccnc1)C(=O)N[C@@H](CC1CCCCC1)C(=O)N[C@@H](CC1CCCCC1)C(=O)N[C@@H](CC(N)=O)C(=O)N[C@@H](CC(C)C)C(=O)NC(C)(C)C(=O)N[C@H](C(=O)N[C@@H](CCCNC(=N)N)C(=O)N[C@@H](CCC(N)=O)C(=O)N[C@@H](CCCNC(=N)N)C(=O)N[C@@H](CC1CCCCC1)C(N)=O)[C@@H](C)O
B5: Ac-[MeSer23, D-Pro24, Cha27,28,36, Aib31]-PYY(22-36) (peptide)
peptide: Ac-A[NMeS][dP]RH[Cha][Cha]NL[Aib]TRQR[Cha]-NH2
SMILES: CC(=O)N[C@@H](C)C(=O)N(C)[C@@H](CO)C(=O)N1CCC[C@@H]1C(=O)N[C@@H](CCCNC(=N)N)C(=O)N[C@@H](Cc1c[nH]cn1)C(=O)N[C@@H](CC1CCCCC1)C(=O)N[C@@H](CC1CCCCC1)C(=O)N[C@@H](CC(N)=O)C(=O)N[C@@H](CC(C)C)C(=O)NC(C)(C)C(=O)N[C@H](C(=O)N[C@@H](CCCNC(=N)N)C(=O)N[C@@H](CCC(N)=O)C(=O)N[C@@H](CCCNC(=N)N)C(=O)N[C@@H](CC1CCCCC1)C(N)=O)[C@@H](C)O
B6: Ac-[Glu23, D-Pic(2)24, Cha27,28,36, Aib31]-PYY(23-36) (peptide)
peptide: Ac-E[dPip]RH[Cha][Cha]NL[Aib]TRQR[Cha]-NH2
SMILES: CC(=O)N[C@@H](CCC(=O)O)C(=O)N1CCCC[C@@H]1C(=O)N[C@@H](CCCNC(=N)N)C(=O)N[C@@H](Cc1c[nH]cn1)C(=O)N[C@@H](CC1CCCCC1)C(=O)N[C@@H](CC1CCCCC1)C(=O)N[C@@H](CC(N)=O)C(=O)N[C@@H](CC(C)C)C(=O)NC(C)(C)C(=O)N[C@H](C(=O)N[C@@H](CCCNC(=N)N)C(=O)N[C@@H](CCC(N)=O)C(=O)N[C@@H](CCCNC(=N)N)C(=O)N[C@@H](CC1CCCCC1)C(N)=O)[C@@H](C)O
B7: Ac-[D-Pro24, Cit26, Cha27,28,36, Aib31]-PYY(23-36) (peptide)
peptide: Ac-S[dP]R[Cit][Cha][Cha]NL[Aib]TRQR[Cha]-NH2
SMILES: CC(=O)N[C@@H](CO)C(=O)N1CCC[C@@H]1C(=O)N[C@@H](CCCNC(=N)N)C(=O)N[C@@H](CCCNC(N)=O)C(=O)N[C@@H](CC1CCCCC1)C(=O)N[C@@H](CC1CCCCC1)C(=O)N[C@@H](CC(N)=O)C(=O)N[C@@H](CC(C)C)C(=O)NC(C)(C)C(=O)N[C@H](C(=O)N[C@@H](CCCNC(=N)N)C(=O)N[C@@H](CCC(N)=O)C(=O)N[C@@H](CCCNC(=N)N)C(=O)N[C@@H](CC1CCCCC1)C(N)=O)[C@@H](C)O
B8: [MeAla22, D-Pro24, Cha27,28,36, Aib31]-PYY(22-36) (peptide)
peptide: [NMeA]S[dP]RH[Cha][Cha]NL[Aib]TRQR[Cha]-NH2
modifications: N-terminus assumed
SMILES: CN[C@@H](C)C(=O)N[C@@H](CO)C(=O)N1CCC[C@@H]1C(=O)N[C@@H](CCCNC(=N)N)C(=O)N[C@@H](Cc1c[nH]cn1)C(=O)N[C@@H](CC1CCCCC1)C(=O)N[C@@H](CC1CCCCC1)C(=O)N[C@@H](CC(N)=O)C(=O)N[C@@H](CC(C)C)C(=O)NC(C)(C)C(=O)N[C@H](C(=O)N[C@@H](CCCNC(=N)N)C(=O)N[C@@H](CCC(N)=O)C(=O)N[C@@H](CCCNC(=N)N)C(=O)N[C@@H](CC1CCCCC1)C(N)=O)[C@@H](C)O
B9: Ac-[D-Pic(2)24, Cha27,28,36, Aib31]-PYY(23-36) (peptide)
peptide: Ac-S[dPip]RH[Cha][Cha]NL[Aib]TRQR[Cha]-NH2
SMILES: CC(=O)N[C@@H](CO)C(=O)N1CCCC[C@@H]1C(=O)N[C@@H](CCCNC(=N)N)C(=O)N[C@@H](Cc1c[nH]cn1)C(=O)N[C@@H](CC1CCCCC1)C(=O)N[C@@H](CC1CCCCC1)C(=O)N[C@@H](CC(N)=O)C(=O)N[C@@H](CC(C)C)C(=O)NC(C)(C)C(=O)N[C@H](C(=O)N[C@@H](CCCNC(=N)N)C(=O)N[C@@H](CCC(N)=O)C(=O)N[C@@H](CCCNC(=N)N)C(=O)N[C@@H](CC1CCCCC1)C(N)=O)[C@@H](C)O
B10: Ac-[D-Pro24, Hse26, Cha27,36, Aib28,31]-PYY(23-36) (peptide)
peptide: Ac-S[dP]R[hSer][Cha][Aib]NL[Aib]TRQR[Cha]-NH2
SMILES: CC(=O)N[C@@H](CO)C(=O)N1CCC[C@@H]1C(=O)N[C@@H](CCCNC(=N)N)C(=O)N[C@@H](CCO)C(=O)N[C@@H](CC1CCCCC1)C(=O)NC(C)(C)C(=O)N[C@@H](CC(N)=O)C(=O)N[C@@H](CC(C)C)C(=O)NC(C)(C)C(=O)N[C@H](C(=O)N[C@@H](CCCNC(=N)N)C(=O)N[C@@H](CCC(N)=O)C(=O)N[C@@H](CCCNC(=N)N)C(=O)N[C@@H](CC1CCCCC1)C(N)=O)[C@@H](C)O
B11: Ac-[D-Hyp24, Cha27,28,36, Aib31]-PYY(23-36) (peptide)
peptide: Ac-S[dHyp]RH[Cha][Cha]NL[Aib]TRQR[Cha]-NH2
SMILES: CC(=O)N[C@@H](CO)C(=O)N1C[C@@H](O)C[C@@H]1C(=O)N[C@@H](CCCNC(=N)N)C(=O)N[C@@H](Cc1c[nH]cn1)C(=O)N[C@@H](CC1CCCCC1)C(=O)N[C@@H](CC1CCCCC1)C(=O)N[C@@H](CC(N)=O)C(=O)N[C@@H](CC(C)C)C(=O)NC(C)(C)C(=O)N[C@H](C(=O)N[C@@H](CCCNC(=N)N)C(=O)N[C@@H](CCC(N)=O)C(=O)N[C@@H](CCCNC(=N)N)C(=O)N[C@@H](CC1CCCCC1)C(N)=O)[C@@H](C)O
B12: Ac-[D-Pro24, Orn26, Cha27,28,36, Aib31]-PYY(23-36) (peptide)
peptide: Ac-S[dP]R[Orn][Cha][Cha]NL[Aib]TRQR[Cha]-NH2
SMILES: CC(=O)N[C@@H](CO)C(=O)N1CCC[C@@H]1C(=O)N[C@@H](CCCNC(=N)N)C(=O)N[C@@H](CCCN)C(=O)N[C@@H](CC1CCCCC1)C(=O)N[C@@H](CC1CCCCC1)C(=O)N[C@@H](CC(N)=O)C(=O)N[C@@H](CC(C)C)C(=O)NC(C)(C)C(=O)N[C@H](C(=O)N[C@@H](CCCNC(=N)N)C(=O)N[C@@H](CCC(N)=O)C(=O)N[C@@H](CCCNC(=N)N)C(=O)N[C@@H](CC1CCCCC1)C(N)=O)[C@@H](C)O
B13: Ac-[D-Pro24, Nle25, Pya(4)26, Cha27,28,36, Aib31]-PYY(23-36) (peptide)
peptide: Ac-S[dP][Nle][4Pal][Cha][Cha]NL[Aib]TRQR[Cha]-NH2
SMILES: CCCC[C@H](NC(=O)[C@H]1CCCN1C(=O)[C@H](CO)NC(C)=O)C(=O)N[C@@H](Cc1ccncc1)C(=O)N[C@@H](CC1CCCCC1)C(=O)N[C@@H](CC1CCCCC1)C(=O)N[C@@H](CC(N)=O)C(=O)N[C@@H](CC(C)C)C(=O)NC(C)(C)C(=O)N[C@H](C(=O)N[C@@H](CCCNC(=N)N)C(=O)N[C@@H](CCC(N)=O)C(=O)N[C@@H](CCCNC(=N)N)C(=O)N[C@@H](CC1CCCCC1)C(N)=O)[C@@H](C)O
B14: Ac-[D-MeAla22, D-Pro24, Cha27,28,36, Aib31]-PYY(22-36) (peptide)
peptide: Ac-[dNMeA]S[dP]RH[Cha][Cha]NL[Aib]TRQR[Cha]-NH2
SMILES: CC(=O)N(C)[C@H](C)C(=O)N[C@@H](CO)C(=O)N1CCC[C@@H]1C(=O)N[C@@H](CCCNC(=N)N)C(=O)N[C@@H](Cc1c[nH]cn1)C(=O)N[C@@H](CC1CCCCC1)C(=O)N[C@@H](CC1CCCCC1)C(=O)N[C@@H](CC(N)=O)C(=O)N[C@@H](CC(C)C)C(=O)NC(C)(C)C(=O)N[C@H](C(=O)N[C@@H](CCCNC(=N)N)C(=O)N[C@@H](CCC(N)=O)C(=O)N[C@@H](CCCNC(=N)N)C(=O)N[C@@H](CC1CCCCC1)C(N)=O)[C@@H](C)O

What follows are binders tested against human Y2 receptor (human) (UniProt P49146) (assay: cell-based or functional assay).
human Y2 receptor (human), sequence (P49146 whole entry): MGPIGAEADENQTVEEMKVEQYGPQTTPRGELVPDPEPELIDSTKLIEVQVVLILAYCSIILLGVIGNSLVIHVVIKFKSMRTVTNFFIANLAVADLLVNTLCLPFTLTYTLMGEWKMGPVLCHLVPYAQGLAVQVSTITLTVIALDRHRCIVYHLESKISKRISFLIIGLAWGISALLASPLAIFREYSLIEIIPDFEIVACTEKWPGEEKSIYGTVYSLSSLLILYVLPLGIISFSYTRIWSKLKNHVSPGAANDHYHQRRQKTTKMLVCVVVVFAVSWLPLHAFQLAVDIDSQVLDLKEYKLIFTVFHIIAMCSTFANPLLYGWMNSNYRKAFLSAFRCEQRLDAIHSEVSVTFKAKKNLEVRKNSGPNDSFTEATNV

| Binder | GBA EC50 Ratio (vs PYY(3-36)), [35S]GTPγS |
| --- | --- |
| B1 | 1.3 |
| B2 | 4.7 |
| B3 | 2.2 |
| B4 | 1.2 |
| B5 | 7.8 |
| B6 | 10 |
| B7 | 1.7 |
| B8 | 0.72 |
| B9 | 5.8 |
| B10 | 5.4 |
| B11 | 0.9 |
| B12 | 2.2 |
| B13 | 2.6 |
| B14 | 6.1 |

What follows are binders tested against human Y2 receptor (human) (UniProt P49146) (assay: RBA: [125I]-PYY displacement, hY2R/CHO membranes).

| Binder | IC50 Ratio (vs PYY(3-36)) |
| --- | --- |
| B1 | 4.6 |
| B2 | 11 |
| B3 | 12 |
| B4 | 3.3 |
| B5 | 12 |
| B6 | 17 |
| B7 | 5.5 |
| B8 | 0.6 |
| B9 | 9.9 |
| B10 | 11 |
| B11 | 1.1 |
| B12 | 4.2 |
| B13 | 20 |
| B14 | 3.5 |
